For experiment [1], the target named is T1, FcγRIIIa extracellular domain with C-terminal His tag (human, UniProt P08637 17-208). The experiment can be described thus: SPR (Biacore), one H chain altered; HeCon Ab GpH7-A5/GpH7-B3/GpL16-k0 = 100. Background: Surface plasmon resonance follows binding to a sensor surface in real time, without labels.
Experiment [2] concerns the target T1, FcγRIIIa extracellular domain with …. In words: SPR (Biacore), both H chains altered; HoCon Ab GpH7-B3/GpL16-k0 = 100.

T1 sequence (P08637 17-208): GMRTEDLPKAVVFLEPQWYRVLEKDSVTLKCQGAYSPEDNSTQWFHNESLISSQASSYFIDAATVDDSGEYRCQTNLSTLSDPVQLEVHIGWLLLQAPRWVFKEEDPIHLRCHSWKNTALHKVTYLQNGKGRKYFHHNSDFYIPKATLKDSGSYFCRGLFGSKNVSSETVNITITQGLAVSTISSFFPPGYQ

B1: GpH7-A5/GpH7-B3 variant A330_05P/GpL16-k0 (antibody, human IgG1, kappa)
heavy 1: not shown
heavy 2: not shown
light: DIVMTQSPLSLPVTPGEPASISCQASESLVHSNRNTYLHWYLQKPGQSPQLLIYKVSNRFSGVPDRFSGSGSGTDFTLKISRVEAEDVGVYYCSQNTHVPPTFGQGTKVEIERTVAAPSVFIFPPSDEQLKSGTASVVCLLNNFYPREAKVQWKVDNALQSGNSQESVTEQDSKDSTYSLSSTLTLSKADYEKHKVYACEVTHQGLSSPVTKSFNRGEC
notes: one H chain altered; also called He Ab A330_05P
As for B1, the He/Con_3a in experiment [1] was 155%.

B2: GpH7-A5/GpH7-B3 variant E333_02A/GpL16-k0 (antibody, human IgG1, kappa)
heavy 1: not shown
heavy 2: not shown
light: DIVMTQSPLSLPVTPGEPASISCQASESLVHSNRNTYLHWYLQKPGQSPQLLIYKVSNRFSGVPDRFSGSGSGTDFTLKISRVEAEDVGVYYCSQNTHVPPTFGQGTKVEIERTVAAPSVFIFPPSDEQLKSGTASVVCLLNNFYPREAKVQWKVDNALQSGNSQESVTEQDSKDSTYSLSSTLTLSKADYEKHKVYACEVTHQGLSSPVTKSFNRGEC
notes: one H chain altered; also called He Ab E333_02A
Molecule B2 showed a He/Con_3a in experiment [1] of 105%.

B3: GpH7-B3 variant S267_09D/GpL16-k0 (antibody, human IgG1, kappa)
heavy: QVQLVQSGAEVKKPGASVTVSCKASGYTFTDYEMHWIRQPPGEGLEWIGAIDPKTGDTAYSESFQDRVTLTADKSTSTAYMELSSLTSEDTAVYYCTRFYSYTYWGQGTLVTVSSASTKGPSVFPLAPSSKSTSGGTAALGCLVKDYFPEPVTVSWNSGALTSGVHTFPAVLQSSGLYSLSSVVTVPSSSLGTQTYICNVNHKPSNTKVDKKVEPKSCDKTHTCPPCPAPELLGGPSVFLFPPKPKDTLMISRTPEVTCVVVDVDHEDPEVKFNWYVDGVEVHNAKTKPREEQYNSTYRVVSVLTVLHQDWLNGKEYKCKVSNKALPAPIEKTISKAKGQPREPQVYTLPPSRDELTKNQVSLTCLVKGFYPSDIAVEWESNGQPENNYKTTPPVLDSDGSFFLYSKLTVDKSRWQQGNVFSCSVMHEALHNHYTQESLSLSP
light: DIVMTQSPLSLPVTPGEPASISCQASESLVHSNRNTYLHWYLQKPGQSPQLLIYKVSNRFSGVPDRFSGSGSGTDFTLKISRVEAEDVGVYYCSQNTHVPPTFGQGTKVEIERTVAAPSVFIFPPSDEQLKSGTASVVCLLNNFYPREAKVQWKVDNALQSGNSQESVTEQDSKDSTYSLSSTLTLSKADYEKHKVYACEVTHQGLSSPVTKSFNRGEC
notes: both H chains altered; also called Ho Ab S267_09D
B3: in experiment [2], the Ho/Con_3a was found to be 160%.

B4: GpH7-B3 variant T335_10E/GpL16-k0 (antibody, human IgG1, kappa)
heavy: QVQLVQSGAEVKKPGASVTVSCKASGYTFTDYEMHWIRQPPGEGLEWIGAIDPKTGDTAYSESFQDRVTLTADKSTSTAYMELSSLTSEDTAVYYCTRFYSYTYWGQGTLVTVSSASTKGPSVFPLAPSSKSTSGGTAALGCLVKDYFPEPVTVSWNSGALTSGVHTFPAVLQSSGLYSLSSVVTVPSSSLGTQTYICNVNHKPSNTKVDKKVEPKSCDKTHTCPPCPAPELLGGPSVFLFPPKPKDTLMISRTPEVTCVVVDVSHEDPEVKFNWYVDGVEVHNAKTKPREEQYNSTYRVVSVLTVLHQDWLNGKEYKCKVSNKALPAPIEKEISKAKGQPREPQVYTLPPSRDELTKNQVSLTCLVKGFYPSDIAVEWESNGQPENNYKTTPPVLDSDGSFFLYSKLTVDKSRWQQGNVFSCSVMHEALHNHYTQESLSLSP
light: DIVMTQSPLSLPVTPGEPASISCQASESLVHSNRNTYLHWYLQKPGQSPQLLIYKVSNRFSGVPDRFSGSGSGTDFTLKISRVEAEDVGVYYCSQNTHVPPTFGQGTKVEIERTVAAPSVFIFPPSDEQLKSGTASVVCLLNNFYPREAKVQWKVDNALQSGNSQESVTEQDSKDSTYSLSSTLTLSKADYEKHKVYACEVTHQGLSSPVTKSFNRGEC
notes: both H chains altered; also called Ho Ab T335_10E
Take B4: the Ho/Con_3a in experiment [2] was found to be 102%.

B5: GpH7-B3 variant S337_09D/GpL16-k0 (antibody, human IgG1, kappa)
heavy: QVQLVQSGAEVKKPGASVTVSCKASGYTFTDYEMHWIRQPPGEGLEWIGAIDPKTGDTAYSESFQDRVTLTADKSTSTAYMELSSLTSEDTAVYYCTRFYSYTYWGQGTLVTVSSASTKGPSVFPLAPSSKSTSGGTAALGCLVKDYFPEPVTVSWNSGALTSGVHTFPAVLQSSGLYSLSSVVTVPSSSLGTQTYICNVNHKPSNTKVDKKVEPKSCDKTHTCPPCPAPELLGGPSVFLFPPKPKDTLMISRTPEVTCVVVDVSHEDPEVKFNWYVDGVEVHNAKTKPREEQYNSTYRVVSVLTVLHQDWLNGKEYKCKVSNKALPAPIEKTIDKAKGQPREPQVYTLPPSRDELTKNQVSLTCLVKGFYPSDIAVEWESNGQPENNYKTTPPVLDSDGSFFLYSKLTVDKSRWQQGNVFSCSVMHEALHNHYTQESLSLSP
light: DIVMTQSPLSLPVTPGEPASISCQASESLVHSNRNTYLHWYLQKPGQSPQLLIYKVSNRFSGVPDRFSGSGSGTDFTLKISRVEAEDVGVYYCSQNTHVPPTFGQGTKVEIERTVAAPSVFIFPPSDEQLKSGTASVVCLLNNFYPREAKVQWKVDNALQSGNSQESVTEQDSKDSTYSLSSTLTLSKADYEKHKVYACEVTHQGLSSPVTKSFNRGEC
notes: both H chains altered; also called Ho Ab S337_09D
Turning to B5, the Ho/Con_3a in experiment [2] was found to be 106%.

B6: GpH7-A5/GpH7-B3 variant E333_03V/GpL16-k0 (antibody, human IgG1, kappa)
heavy 1: not shown
heavy 2: not shown
light: DIVMTQSPLSLPVTPGEPASISCQASESLVHSNRNTYLHWYLQKPGQSPQLLIYKVSNRFSGVPDRFSGSGSGTDFTLKISRVEAEDVGVYYCSQNTHVPPTFGQGTKVEIERTVAAPSVFIFPPSDEQLKSGTASVVCLLNNFYPREAKVQWKVDNALQSGNSQESVTEQDSKDSTYSLSSTLTLSKADYEKHKVYACEVTHQGLSSPVTKSFNRGEC
notes: one H chain altered; also called He Ab E333_03V
With B6, in experiment [1], the He/Con_3a worked out at 103%.

B7: GpH7-B3 variant S337_10E/GpL16-k0 (antibody, human IgG1, kappa)
heavy: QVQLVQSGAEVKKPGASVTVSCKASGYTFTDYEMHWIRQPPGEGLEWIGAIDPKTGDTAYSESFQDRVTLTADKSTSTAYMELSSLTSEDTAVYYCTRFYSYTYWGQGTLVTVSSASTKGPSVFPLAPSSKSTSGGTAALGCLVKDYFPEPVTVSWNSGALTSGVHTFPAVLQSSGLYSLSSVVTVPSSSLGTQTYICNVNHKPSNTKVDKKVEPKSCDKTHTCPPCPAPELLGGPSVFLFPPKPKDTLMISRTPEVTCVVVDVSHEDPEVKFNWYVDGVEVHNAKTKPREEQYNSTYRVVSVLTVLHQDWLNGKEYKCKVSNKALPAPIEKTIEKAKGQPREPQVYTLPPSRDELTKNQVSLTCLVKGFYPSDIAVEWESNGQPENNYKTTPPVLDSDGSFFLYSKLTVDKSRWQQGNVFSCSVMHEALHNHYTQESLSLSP
light: DIVMTQSPLSLPVTPGEPASISCQASESLVHSNRNTYLHWYLQKPGQSPQLLIYKVSNRFSGVPDRFSGSGSGTDFTLKISRVEAEDVGVYYCSQNTHVPPTFGQGTKVEIERTVAAPSVFIFPPSDEQLKSGTASVVCLLNNFYPREAKVQWKVDNALQSGNSQESVTEQDSKDSTYSLSSTLTLSKADYEKHKVYACEVTHQGLSSPVTKSFNRGEC
notes: both H chains altered; also called Ho Ab S337_10E
B7 had a Ho/Con_3a in experiment [2] of 100%.

B8: GpH7-B3 variant S324_15Y/GpL16-k0 (antibody, human IgG1, kappa)
heavy: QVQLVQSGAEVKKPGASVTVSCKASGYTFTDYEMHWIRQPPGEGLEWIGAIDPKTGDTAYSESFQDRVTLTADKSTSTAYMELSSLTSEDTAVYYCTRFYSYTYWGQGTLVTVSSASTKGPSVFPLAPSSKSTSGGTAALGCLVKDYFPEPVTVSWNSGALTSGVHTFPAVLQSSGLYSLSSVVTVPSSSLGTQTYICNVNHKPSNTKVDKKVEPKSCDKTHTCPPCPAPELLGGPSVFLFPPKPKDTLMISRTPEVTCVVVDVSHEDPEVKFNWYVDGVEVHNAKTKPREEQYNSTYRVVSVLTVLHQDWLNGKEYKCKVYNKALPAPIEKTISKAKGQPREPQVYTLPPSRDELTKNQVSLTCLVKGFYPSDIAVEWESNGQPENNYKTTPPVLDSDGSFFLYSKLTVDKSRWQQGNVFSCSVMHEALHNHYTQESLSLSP
light: DIVMTQSPLSLPVTPGEPASISCQASESLVHSNRNTYLHWYLQKPGQSPQLLIYKVSNRFSGVPDRFSGSGSGTDFTLKISRVEAEDVGVYYCSQNTHVPPTFGQGTKVEIERTVAAPSVFIFPPSDEQLKSGTASVVCLLNNFYPREAKVQWKVDNALQSGNSQESVTEQDSKDSTYSLSSTLTLSKADYEKHKVYACEVTHQGLSSPVTKSFNRGEC
notes: both H chains altered; also called Ho Ab S324_15Y
Turning to B8, in experiment [2], the Ho/Con_3a was determined as 100%.

B9: GpH7-B3 variant T335_07I/GpL16-k0 (antibody, human IgG1, kappa)
heavy: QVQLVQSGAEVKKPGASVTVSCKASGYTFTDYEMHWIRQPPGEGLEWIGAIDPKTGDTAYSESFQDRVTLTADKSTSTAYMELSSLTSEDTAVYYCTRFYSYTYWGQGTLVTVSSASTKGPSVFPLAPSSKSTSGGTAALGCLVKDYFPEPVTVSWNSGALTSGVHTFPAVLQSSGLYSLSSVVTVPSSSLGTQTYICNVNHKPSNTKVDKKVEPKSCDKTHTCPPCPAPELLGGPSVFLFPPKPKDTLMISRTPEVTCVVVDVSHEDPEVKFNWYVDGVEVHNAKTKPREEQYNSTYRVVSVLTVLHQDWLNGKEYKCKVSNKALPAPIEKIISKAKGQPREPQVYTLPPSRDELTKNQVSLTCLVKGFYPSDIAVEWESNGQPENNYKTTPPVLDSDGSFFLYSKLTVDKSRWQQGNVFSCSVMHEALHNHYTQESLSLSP
light: DIVMTQSPLSLPVTPGEPASISCQASESLVHSNRNTYLHWYLQKPGQSPQLLIYKVSNRFSGVPDRFSGSGSGTDFTLKISRVEAEDVGVYYCSQNTHVPPTFGQGTKVEIERTVAAPSVFIFPPSDEQLKSGTASVVCLLNNFYPREAKVQWKVDNALQSGNSQESVTEQDSKDSTYSLSSTLTLSKADYEKHKVYACEVTHQGLSSPVTKSFNRGEC
notes: both H chains altered; also called Ho Ab T335_07I
B9 displayed a Ho/Con_3a in experiment [2] of 107%.

B10: GpH7-B3 variant S324_16H/GpL16-k0 (antibody, human IgG1, kappa)
heavy: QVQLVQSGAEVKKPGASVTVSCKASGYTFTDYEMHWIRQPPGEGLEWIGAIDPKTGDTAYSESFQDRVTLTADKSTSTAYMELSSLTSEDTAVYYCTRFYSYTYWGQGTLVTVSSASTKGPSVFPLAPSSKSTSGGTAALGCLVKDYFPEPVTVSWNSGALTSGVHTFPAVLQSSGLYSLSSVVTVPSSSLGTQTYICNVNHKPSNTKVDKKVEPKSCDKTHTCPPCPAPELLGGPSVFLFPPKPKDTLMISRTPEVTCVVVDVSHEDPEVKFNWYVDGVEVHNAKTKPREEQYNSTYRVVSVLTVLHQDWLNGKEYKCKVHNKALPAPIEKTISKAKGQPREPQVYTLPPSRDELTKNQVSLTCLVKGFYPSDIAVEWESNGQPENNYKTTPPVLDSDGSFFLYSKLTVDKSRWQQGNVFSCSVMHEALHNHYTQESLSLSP
light: DIVMTQSPLSLPVTPGEPASISCQASESLVHSNRNTYLHWYLQKPGQSPQLLIYKVSNRFSGVPDRFSGSGSGTDFTLKISRVEAEDVGVYYCSQNTHVPPTFGQGTKVEIERTVAAPSVFIFPPSDEQLKSGTASVVCLLNNFYPREAKVQWKVDNALQSGNSQESVTEQDSKDSTYSLSSTLTLSKADYEKHKVYACEVTHQGLSSPVTKSFNRGEC
notes: both H chains altered; also called Ho Ab S324_16H
In experiment [2], B10 came in with a Ho/Con_3a of 103%.

B11: GpH7-B3 variant S298_14T/GpL16-k0 (antibody, human IgG1, kappa)
heavy: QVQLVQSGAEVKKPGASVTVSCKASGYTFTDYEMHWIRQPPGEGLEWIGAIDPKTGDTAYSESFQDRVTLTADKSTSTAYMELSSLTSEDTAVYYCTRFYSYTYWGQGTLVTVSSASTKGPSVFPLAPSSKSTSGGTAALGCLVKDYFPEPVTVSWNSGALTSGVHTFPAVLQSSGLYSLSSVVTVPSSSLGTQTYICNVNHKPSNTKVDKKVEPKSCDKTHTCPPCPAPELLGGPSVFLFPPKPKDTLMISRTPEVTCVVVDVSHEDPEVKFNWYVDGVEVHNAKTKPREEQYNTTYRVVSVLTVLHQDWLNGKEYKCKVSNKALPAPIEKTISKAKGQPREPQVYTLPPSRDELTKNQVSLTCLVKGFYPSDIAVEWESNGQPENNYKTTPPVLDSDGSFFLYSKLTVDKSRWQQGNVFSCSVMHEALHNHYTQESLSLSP
light: DIVMTQSPLSLPVTPGEPASISCQASESLVHSNRNTYLHWYLQKPGQSPQLLIYKVSNRFSGVPDRFSGSGSGTDFTLKISRVEAEDVGVYYCSQNTHVPPTFGQGTKVEIERTVAAPSVFIFPPSDEQLKSGTASVVCLLNNFYPREAKVQWKVDNALQSGNSQESVTEQDSKDSTYSLSSTLTLSKADYEKHKVYACEVTHQGLSSPVTKSFNRGEC
notes: both H chains altered; also called Ho Ab S298_14T
In experiment [2], B11 gave a Ho/Con_3a of 107%.

B12: GpH7-B3 variant S337_18N/GpL16-k0 (antibody, human IgG1, kappa)
heavy: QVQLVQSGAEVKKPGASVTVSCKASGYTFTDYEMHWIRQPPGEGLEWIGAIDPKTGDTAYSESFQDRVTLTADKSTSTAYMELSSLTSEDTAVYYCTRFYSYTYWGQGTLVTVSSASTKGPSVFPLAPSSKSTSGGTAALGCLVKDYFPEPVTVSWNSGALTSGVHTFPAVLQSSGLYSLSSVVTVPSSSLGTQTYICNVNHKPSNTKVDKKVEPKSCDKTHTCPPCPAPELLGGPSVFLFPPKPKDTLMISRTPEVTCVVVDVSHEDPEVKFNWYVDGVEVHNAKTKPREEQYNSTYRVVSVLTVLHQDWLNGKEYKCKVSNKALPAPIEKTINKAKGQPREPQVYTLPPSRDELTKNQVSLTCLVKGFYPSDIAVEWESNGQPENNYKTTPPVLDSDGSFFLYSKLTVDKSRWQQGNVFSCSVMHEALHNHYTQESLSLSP
light: DIVMTQSPLSLPVTPGEPASISCQASESLVHSNRNTYLHWYLQKPGQSPQLLIYKVSNRFSGVPDRFSGSGSGTDFTLKISRVEAEDVGVYYCSQNTHVPPTFGQGTKVEIERTVAAPSVFIFPPSDEQLKSGTASVVCLLNNFYPREAKVQWKVDNALQSGNSQESVTEQDSKDSTYSLSSTLTLSKADYEKHKVYACEVTHQGLSSPVTKSFNRGEC
notes: both H chains altered; also called Ho Ab S337_18N
Take B12: the Ho/Con_3a in experiment [2] was 102%.

B13: GpH7-A5/GpH7-B3 variant A330_07I/GpL16-k0 (antibody, human IgG1, kappa)
heavy 1: not shown
heavy 2: not shown
light: DIVMTQSPLSLPVTPGEPASISCQASESLVHSNRNTYLHWYLQKPGQSPQLLIYKVSNRFSGVPDRFSGSGSGTDFTLKISRVEAEDVGVYYCSQNTHVPPTFGQGTKVEIERTVAAPSVFIFPPSDEQLKSGTASVVCLLNNFYPREAKVQWKVDNALQSGNSQESVTEQDSKDSTYSLSSTLTLSKADYEKHKVYACEVTHQGLSSPVTKSFNRGEC
notes: one H chain altered; also called He Ab A330_07I
B13 gave a He/Con_3a in experiment [1] of 103%.

B14: GpH7-B3 variant K334_09D/GpL16-k0 (antibody, human IgG1, kappa)
heavy: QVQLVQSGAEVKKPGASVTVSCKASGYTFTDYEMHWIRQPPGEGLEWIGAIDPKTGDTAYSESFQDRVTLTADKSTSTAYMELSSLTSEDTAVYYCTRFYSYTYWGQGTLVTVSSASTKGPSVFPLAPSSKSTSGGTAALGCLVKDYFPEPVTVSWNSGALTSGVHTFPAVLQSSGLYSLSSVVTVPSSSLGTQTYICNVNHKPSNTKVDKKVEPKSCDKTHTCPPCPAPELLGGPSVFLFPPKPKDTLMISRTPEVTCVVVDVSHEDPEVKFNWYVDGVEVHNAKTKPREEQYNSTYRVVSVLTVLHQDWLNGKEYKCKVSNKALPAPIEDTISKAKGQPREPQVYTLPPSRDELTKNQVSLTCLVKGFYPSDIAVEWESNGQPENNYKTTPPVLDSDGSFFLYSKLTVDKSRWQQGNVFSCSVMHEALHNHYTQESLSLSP
light: DIVMTQSPLSLPVTPGEPASISCQASESLVHSNRNTYLHWYLQKPGQSPQLLIYKVSNRFSGVPDRFSGSGSGTDFTLKISRVEAEDVGVYYCSQNTHVPPTFGQGTKVEIERTVAAPSVFIFPPSDEQLKSGTASVVCLLNNFYPREAKVQWKVDNALQSGNSQESVTEQDSKDSTYSLSSTLTLSKADYEKHKVYACEVTHQGLSSPVTKSFNRGEC
notes: both H chains altered; also called Ho Ab K334_09D
With B14, the Ho/Con_3a in experiment [2] was 150%.

B15: GpH7-B3 variant Q295_14T/GpL16-k0 (antibody, human IgG1, kappa)
heavy: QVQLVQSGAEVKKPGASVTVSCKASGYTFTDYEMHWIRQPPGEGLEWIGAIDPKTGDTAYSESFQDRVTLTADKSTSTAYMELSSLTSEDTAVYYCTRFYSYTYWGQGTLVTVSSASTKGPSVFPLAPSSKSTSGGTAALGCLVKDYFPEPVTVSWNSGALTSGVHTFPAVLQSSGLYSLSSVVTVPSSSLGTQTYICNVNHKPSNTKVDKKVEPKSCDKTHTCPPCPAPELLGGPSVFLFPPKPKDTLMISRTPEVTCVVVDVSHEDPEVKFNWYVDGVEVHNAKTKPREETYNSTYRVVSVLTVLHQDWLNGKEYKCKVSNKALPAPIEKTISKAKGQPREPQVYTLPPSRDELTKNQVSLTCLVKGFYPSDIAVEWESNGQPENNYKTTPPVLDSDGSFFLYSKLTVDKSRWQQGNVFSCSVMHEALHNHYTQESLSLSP
light: DIVMTQSPLSLPVTPGEPASISCQASESLVHSNRNTYLHWYLQKPGQSPQLLIYKVSNRFSGVPDRFSGSGSGTDFTLKISRVEAEDVGVYYCSQNTHVPPTFGQGTKVEIERTVAAPSVFIFPPSDEQLKSGTASVVCLLNNFYPREAKVQWKVDNALQSGNSQESVTEQDSKDSTYSLSSTLTLSKADYEKHKVYACEVTHQGLSSPVTKSFNRGEC
notes: both H chains altered; also called Ho Ab Q295_14T
In experiment [2], B15 displayed a Ho/Con_3a of 108%.

B16: GpH7-B3 variant S267_02A/GpL16-k0 (antibody, human IgG1, kappa)
heavy: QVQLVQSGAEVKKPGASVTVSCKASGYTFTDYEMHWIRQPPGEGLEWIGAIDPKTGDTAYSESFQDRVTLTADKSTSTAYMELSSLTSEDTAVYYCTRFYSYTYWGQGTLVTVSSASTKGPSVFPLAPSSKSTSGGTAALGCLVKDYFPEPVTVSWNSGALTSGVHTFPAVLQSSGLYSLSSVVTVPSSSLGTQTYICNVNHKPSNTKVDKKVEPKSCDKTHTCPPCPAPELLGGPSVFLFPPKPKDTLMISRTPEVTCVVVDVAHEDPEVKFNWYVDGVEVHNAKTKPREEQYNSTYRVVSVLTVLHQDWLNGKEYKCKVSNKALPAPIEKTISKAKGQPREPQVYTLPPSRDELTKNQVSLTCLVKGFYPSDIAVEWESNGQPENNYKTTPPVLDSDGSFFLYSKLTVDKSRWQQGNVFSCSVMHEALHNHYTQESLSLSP
light: DIVMTQSPLSLPVTPGEPASISCQASESLVHSNRNTYLHWYLQKPGQSPQLLIYKVSNRFSGVPDRFSGSGSGTDFTLKISRVEAEDVGVYYCSQNTHVPPTFGQGTKVEIERTVAAPSVFIFPPSDEQLKSGTASVVCLLNNFYPREAKVQWKVDNALQSGNSQESVTEQDSKDSTYSLSSTLTLSKADYEKHKVYACEVTHQGLSSPVTKSFNRGEC
notes: both H chains altered; also called Ho Ab S267_02A
As for B16, the Ho/Con_3a in experiment [2] amounted to 145%.

The values above are taken from US20150344570A1 (published 2015).
